Laboratory results as given in paper PMC4705688.

Molecular target: His-Cmr (Mycobacterium tuberculosis H37Rv, UniProt P9WMH5 1-244)
Assay: EMSA

Sequence of His-Cmr (P9WMH5 whole entry): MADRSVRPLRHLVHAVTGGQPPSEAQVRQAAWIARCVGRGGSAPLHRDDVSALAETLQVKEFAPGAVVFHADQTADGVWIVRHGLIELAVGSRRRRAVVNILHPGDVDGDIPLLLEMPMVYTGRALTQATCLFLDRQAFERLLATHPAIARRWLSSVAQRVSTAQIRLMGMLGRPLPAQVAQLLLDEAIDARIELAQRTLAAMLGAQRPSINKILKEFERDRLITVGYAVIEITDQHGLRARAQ

B1: 1C1 40 bp overlap (dsDNA)
DNA 1: GCGTGGTTCAGCTTGTCACCGGTGACACTGTGTTGGCTTC
DNA 2: GAAGCCAACACAGTGTCACCGGTGACAAGCTGAACCACGC
binding result: binds
